From paper PMC6238616

Target: SMN1, wild type, LUMIER fusion, Q16637
Experiment: LUMIER
Conditions: chain shown with the change;; parent: est. 51000; read off a plot

Chain of SMN1, wild type, LUMIER fusion, Q16637 (Q16637 whole entry, the tested form may be a part): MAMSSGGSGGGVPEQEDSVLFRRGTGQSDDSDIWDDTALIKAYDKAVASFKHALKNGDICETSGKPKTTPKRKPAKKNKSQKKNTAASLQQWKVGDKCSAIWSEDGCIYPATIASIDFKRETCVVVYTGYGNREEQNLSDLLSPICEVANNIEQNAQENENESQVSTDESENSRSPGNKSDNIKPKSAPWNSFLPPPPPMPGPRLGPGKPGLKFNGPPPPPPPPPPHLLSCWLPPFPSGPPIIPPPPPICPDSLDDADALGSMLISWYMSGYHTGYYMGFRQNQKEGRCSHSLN

response: 28000 RU
B1: PHF1, wild type, LUMIER fusion, O43189 Y47A (protein)
chain: MAQPPRLSRSGASSLWDPASPAPTSGPRPRLWEGQDVLARWTDGLLALGTIKKVDSAREVCLVQFEDDSQFLVLWKDISPAALPGEELLCCVCRSETVVPGNRLVSCEKCRHAYHQDCHVPRAPAPGEGEGTSWVCRQCVFAIATKRGGALKKGPYARAMLGMKLSLPYGLKGLDWDAGHLSNRQQSYCYCGGPGEWNLKMLQCRSCLQWFHEACTQCLSKPLLYGDRFYEFECCVCRGGPEKVRRLQLRWVDVAHLVLYHLSVCCKKKYFDFDREILPFTSENWDSLLLGELSDTPKGERSSRLLSALNSHKDRFISGREIKKRKCLFGLHARMPPPVEPPTGDGALTSFPSGQGPGGGVSRPLGKRRRPEPEPLRRRQKGKVEELGPPSAVRNQPEPQEQRERAHLQRALQASVSPPSPSPNQSYQGSSGYNFRPTDARCLPSSPIRMFASFHPSASTAGTSGDSGPPDRSPLELHIGFPTDIPKSAPHSMTASSSSVSSPSPGLPRRSAPPSPLCRSLSPGTGGGVRGGVGYLSRGDPVRVLARRVRPDGSVQYLVEWGGGGIF
